Ends that are not written are not given here.
Assays:
[1] = biological target: T1, neuropilin-1 by forced expression in M21 cells (transfected neuropilin-1 cDNA) (UniProt O14786 22-923, limits assumed); assay: cell-based or functional assay
[2] = biological target: T1, neuropilin-1 by forced expression in …; assay: phage binding to M21 cells transfected with neuropilin-1 cDNA against vector alone or untransfected cells, phage titration
Description: Suspended cells (10⁶ cells in DMEM containing 1% BSA) were incubated with 10⁸ pfu/ml of T7 phage for 1 hr at 4° C. The cells were washed 4 times with the binding buffer, lysed with lysogeny broth containing 1% NP-40, and titrated. Phage internalization assays used the same procedure, except that the cells were incubated with phage at 37° C., and that an acidic buffer (500 mM sodium chloride, 0.1 M glycine, 1% BSA, pH 2.5) was substituted for the binding buffer in the second wash. Inhibitors of binding and internalization were added 20 min prior to incubation with phage. […] Free synthetic peptides, mouse antibodies against human α1, α2, αvβ3, αvβ5, α5β1, α4, or αv integrins and integrin subunits (Chemicon), goat anti-rat neuropilin-1 (R&D Systems, Minneapolis, Minn.), with mouse and a goat IgG isotype controls (Abcam) were also tested.

T1 sequence (O14786 22-923 limits assumed): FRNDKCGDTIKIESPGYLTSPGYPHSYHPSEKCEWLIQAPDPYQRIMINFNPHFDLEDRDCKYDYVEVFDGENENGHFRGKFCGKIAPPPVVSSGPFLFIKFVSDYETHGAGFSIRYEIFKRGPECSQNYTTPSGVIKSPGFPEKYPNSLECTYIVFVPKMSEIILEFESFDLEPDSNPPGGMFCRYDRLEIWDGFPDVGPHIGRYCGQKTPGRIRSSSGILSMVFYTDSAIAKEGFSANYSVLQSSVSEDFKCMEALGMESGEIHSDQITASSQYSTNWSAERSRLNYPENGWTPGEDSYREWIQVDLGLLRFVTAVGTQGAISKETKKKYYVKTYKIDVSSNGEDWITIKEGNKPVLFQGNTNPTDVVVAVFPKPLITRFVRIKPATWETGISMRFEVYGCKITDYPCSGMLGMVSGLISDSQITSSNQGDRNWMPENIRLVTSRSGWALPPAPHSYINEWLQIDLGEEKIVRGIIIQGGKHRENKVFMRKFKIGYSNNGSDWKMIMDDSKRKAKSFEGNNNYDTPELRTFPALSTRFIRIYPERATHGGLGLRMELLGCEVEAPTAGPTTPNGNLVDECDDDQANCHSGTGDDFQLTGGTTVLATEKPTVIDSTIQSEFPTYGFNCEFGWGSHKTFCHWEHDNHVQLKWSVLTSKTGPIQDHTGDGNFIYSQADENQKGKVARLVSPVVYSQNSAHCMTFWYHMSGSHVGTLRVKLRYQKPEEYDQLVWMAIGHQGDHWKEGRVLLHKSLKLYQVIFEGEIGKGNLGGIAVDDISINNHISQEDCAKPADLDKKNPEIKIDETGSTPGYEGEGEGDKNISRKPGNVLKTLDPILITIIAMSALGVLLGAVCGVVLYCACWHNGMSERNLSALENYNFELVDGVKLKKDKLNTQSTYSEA

B1: CRGDK phage (T7 phage displaying CRGDK) (peptide)
peptide: CRGDK
modifications: also: displayed on T7 phage
notes: CRGDK is the N-terminal proteolytic fragment of iRGD; also called CRGDK fragment; FAM-CRGDK
In the case of B1, the “internalization of CRGDK phage into M21 cells” value [1] is reported as 3.5 fold and the “fold increase of binding on forced expression of neuropilin-1 in M21 cells” value [2] is reported as 3.5 fold.

From patent publication US20130343989A1 (SANFORD BURNHAM MEDICAL RESEARCH INSTITUTE, published 2013)
